Results reported in doi:10.1101/2021.09.10.459738.

Target: heat-denatured ovalbumin (UniProt P01012)
Experiment: ELISA

UniProt P01012, sequence (P01012 whole entry): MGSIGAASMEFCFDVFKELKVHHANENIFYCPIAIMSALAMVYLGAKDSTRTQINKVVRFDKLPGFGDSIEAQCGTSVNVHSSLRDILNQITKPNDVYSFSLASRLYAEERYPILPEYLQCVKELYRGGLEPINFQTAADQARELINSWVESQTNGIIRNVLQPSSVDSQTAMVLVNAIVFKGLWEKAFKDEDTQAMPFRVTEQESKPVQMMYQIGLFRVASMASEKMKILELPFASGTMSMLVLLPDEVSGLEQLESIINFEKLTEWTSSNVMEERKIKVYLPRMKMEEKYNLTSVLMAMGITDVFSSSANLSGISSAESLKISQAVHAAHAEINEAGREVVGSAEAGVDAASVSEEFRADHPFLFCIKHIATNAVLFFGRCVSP

## human IRE1α-LD-Fc fusion protein (from UniProt O75460 19-443)
  Kd: 300 µM
